# Molecular target: RPA heterotrimer (RPA1, RPA2, RPA3) (UniProt P27694;P15927;P35244 1-616;1-270;1-121)
# Experiment: EMSA; low PAR (lanes 3-4, from 8 ng) mixed with DNA before RPA; free DNA decreased; PBS, 20 ul, 20-23 C (room temperature), 30 min; 1% agarose gel in 0.5x TBE at 4 C; pH not stated
# Details: protein: recombinant; copies: 1;1;1; label: 5' Cy5.5; single strand
# Chain of RPA heterotrimer (RPA1, RPA2, RPA3) (P27694 whole entry, chain 1 of 3): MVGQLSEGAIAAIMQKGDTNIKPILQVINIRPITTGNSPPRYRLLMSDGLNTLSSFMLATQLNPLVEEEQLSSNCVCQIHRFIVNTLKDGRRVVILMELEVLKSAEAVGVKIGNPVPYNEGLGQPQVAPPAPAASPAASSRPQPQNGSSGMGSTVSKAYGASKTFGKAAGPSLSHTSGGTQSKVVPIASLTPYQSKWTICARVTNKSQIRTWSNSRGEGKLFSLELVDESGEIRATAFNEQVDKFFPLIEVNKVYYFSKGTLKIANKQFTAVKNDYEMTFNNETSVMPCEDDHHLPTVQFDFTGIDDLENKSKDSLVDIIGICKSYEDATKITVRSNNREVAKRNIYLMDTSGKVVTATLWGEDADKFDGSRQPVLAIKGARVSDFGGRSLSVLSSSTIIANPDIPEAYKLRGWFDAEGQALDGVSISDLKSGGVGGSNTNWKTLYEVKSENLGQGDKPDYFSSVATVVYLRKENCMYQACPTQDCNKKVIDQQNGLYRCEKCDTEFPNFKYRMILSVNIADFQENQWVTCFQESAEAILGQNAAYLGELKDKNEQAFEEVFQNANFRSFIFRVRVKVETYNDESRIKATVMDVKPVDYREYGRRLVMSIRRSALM
# Chain of RPA heterotrimer (RPA1, RPA2, RPA3) (P15927 whole entry, chain 2 of 3): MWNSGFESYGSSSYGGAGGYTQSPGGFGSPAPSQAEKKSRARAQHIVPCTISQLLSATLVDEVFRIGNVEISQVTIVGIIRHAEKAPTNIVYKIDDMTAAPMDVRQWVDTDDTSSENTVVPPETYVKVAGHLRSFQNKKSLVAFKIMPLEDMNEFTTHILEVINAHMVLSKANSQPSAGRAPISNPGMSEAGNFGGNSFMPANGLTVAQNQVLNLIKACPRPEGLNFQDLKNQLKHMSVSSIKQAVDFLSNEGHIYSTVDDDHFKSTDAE
# Chain of RPA heterotrimer (RPA1, RPA2, RPA3) (P35244 whole entry, chain 3 of 3): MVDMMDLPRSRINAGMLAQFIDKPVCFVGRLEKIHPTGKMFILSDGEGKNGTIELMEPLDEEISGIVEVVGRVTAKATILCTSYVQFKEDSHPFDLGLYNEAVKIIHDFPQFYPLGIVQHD
binder,measurement,value
TTTTTTTTTTTTTTTTTTTTTTTTTTTTTTTTTTTTTTTTTTTTTTTTTT (ssDNA) [Cy5.5-oligodT 50-mer],binding result,binds
